Common to all, as to assay: Kinase Profiling Assay
Type in all cases: biochemical
Common to all, as to conditions: 100 μM

Assay [1] concerns the target SRPK2 (h) (Homo sapiens, UniProt P78362). How it is done: (§1) Every kinase activity measurement was conducted in duplicate.
(§2) Specifically, in these assays, a positively charged substrate is phosphorylated with a radiolabeled phosphate group from an ATP if the kinase is not inhibited by an inhibitor peptide. The positively charged substrate then is attracted to a negatively charged filter membrane, quantified with a scintillation counter, and compared to a 100% activity control.
(§3) In addition to determining the IC50 of the compound, the specificity of MK2 inhibitory peptides was assessed by examining activities of all 266 human kinases available for testing in the Millipore kinase profiling service (Table 1).

Assay [2] has as its target T1, ZAP-70 (h) (Homo sapiens, UniProt P43403).
T1 sequence (P43403 1-619): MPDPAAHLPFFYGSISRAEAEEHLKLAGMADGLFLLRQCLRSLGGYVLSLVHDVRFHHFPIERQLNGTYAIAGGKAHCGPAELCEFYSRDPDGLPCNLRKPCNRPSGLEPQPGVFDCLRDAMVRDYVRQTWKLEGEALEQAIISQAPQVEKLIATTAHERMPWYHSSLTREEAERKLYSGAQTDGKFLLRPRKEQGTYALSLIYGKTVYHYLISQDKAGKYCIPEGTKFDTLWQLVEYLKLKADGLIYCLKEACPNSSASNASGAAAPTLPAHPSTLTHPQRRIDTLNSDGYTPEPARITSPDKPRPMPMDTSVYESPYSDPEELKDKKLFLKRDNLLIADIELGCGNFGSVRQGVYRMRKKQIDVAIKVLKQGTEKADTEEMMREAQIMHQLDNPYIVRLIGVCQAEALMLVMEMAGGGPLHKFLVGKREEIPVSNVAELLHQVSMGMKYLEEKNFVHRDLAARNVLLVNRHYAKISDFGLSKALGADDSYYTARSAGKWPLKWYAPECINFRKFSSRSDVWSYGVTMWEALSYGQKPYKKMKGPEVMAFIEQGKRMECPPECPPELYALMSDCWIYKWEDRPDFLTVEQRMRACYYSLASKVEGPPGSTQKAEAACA
The method, then: as §1, §2, §3

The target in assay [3] is T2, PAK4 (h) (Homo sapiens, UniProt O96013).
T2 construct: purchased Millipore
How it is done:
as §1, §2, §3

In assay [4] the target is Met(M1268T) (h) (Homo sapiens, UniProt P08581, M1250T). The method, then:
as §1, §2, §3

Assay [5] has as its target T3, TAK1 (h) (Homo sapiens, UniProt O43318).
T3 sequence (O43318 with tags, fused parts or gaps limits assumed): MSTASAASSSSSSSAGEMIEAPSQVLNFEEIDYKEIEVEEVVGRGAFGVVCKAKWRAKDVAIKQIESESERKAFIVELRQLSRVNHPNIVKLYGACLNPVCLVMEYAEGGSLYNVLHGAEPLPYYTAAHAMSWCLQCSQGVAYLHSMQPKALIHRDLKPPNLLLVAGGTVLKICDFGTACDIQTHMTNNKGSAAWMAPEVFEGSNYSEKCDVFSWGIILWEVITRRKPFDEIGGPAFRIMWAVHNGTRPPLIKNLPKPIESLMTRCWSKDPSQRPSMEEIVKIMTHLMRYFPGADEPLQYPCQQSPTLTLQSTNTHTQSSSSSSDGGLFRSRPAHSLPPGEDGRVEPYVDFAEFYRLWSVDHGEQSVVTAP
How it is done: as §1, §2, §3

The target in assay [6] is Abl(Y253F) (h) (Homo sapiens, UniProt P00519, Y253F). How it is done: as §1, §2, §3
The target in assay [7] is T4, CHK2(R145W) (h) (Homo sapiens, UniProt O96017, R145W).
T4 construct: purchased Millipore
How it is done:
as §1, §2, §3

Assay [8] deals with Flt3 (h) (Homo sapiens, UniProt P36888). The method, then: as §1, §2, §3
Assay [9] has as its target T5, CDK5/p25 (h) (Homo sapiens, UniProt Q00535).
T5 construct: purchased Millipore
How it is done:
as §1, §2, §3

The target in assay [10] is T6, MRCKβ (h) (Homo sapiens, UniProt Q9Y5S2).
T6 construct: purchased Millipore
T6 sequence (Q9Y5S2 whole entry): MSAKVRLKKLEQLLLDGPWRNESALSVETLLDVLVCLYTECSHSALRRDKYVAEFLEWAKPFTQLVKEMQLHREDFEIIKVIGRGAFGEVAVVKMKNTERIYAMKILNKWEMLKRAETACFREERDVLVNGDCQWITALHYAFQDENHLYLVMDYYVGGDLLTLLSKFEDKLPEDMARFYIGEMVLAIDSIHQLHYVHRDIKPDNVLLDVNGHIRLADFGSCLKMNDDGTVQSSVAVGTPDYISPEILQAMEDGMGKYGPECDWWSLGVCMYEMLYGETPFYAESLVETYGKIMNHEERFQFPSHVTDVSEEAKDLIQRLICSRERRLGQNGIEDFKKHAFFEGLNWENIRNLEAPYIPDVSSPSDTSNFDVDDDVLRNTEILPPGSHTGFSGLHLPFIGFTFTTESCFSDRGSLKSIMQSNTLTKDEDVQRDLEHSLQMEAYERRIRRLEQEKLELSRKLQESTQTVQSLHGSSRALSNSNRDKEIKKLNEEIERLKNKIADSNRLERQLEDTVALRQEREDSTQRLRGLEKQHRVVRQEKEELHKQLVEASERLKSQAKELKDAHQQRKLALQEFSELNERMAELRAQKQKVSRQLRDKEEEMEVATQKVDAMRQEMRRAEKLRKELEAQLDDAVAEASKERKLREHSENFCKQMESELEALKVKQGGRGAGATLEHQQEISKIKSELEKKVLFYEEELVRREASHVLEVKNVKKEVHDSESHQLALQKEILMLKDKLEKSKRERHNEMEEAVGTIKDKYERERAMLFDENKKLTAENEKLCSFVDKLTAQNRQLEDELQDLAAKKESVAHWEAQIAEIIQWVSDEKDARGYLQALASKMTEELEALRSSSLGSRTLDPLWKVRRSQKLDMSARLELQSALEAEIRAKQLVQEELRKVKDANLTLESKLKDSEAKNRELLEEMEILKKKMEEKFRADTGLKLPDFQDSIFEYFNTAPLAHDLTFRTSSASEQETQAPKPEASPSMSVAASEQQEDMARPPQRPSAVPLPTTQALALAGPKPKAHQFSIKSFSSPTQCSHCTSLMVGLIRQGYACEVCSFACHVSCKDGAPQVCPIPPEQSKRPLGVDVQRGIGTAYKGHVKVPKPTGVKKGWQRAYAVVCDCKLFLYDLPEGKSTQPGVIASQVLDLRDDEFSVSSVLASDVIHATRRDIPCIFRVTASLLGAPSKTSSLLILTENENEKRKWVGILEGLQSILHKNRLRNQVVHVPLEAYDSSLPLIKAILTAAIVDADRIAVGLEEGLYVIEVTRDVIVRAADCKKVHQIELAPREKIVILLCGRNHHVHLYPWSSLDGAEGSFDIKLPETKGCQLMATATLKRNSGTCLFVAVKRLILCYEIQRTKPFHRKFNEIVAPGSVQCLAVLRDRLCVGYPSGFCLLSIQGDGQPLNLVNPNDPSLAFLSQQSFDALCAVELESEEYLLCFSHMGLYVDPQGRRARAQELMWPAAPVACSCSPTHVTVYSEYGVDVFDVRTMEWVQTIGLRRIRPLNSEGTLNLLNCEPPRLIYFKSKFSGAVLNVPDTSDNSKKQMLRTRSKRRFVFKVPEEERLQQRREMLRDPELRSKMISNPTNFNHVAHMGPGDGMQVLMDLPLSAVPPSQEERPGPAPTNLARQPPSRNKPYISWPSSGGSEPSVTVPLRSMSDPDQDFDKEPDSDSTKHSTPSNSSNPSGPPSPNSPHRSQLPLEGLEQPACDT
How it is done:
as §1, §2, §3

For assay [11], the target named is T7, PKBα (h) (Homo sapiens, UniProt P31749).
T7 construct: purchased Millipore
T7 sequence (P31749 whole entry): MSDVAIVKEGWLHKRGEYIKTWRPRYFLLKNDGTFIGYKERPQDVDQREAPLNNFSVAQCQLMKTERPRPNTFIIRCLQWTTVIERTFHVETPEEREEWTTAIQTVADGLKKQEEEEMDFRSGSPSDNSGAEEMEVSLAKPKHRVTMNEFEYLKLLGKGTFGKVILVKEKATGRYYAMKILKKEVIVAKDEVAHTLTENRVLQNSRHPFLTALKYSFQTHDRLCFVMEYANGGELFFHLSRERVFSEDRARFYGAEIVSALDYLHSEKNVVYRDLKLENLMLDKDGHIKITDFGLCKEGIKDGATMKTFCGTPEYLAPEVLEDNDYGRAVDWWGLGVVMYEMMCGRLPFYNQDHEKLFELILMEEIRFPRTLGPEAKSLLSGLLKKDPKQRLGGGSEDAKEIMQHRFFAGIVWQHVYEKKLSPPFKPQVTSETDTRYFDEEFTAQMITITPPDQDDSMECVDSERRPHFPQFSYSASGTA
How it is done: as §1, §2, §3

Assay [12] has as its target SIK (h) (Homo sapiens, UniProt P57059). How it is done: as §1, §2, §3
The target of assay [13] is T8, PKCβII (h) (Homo sapiens, UniProt P05771).
T8 construct: purchased Millipore
T8 sequence (P05771 1-673 isoform P05771-2): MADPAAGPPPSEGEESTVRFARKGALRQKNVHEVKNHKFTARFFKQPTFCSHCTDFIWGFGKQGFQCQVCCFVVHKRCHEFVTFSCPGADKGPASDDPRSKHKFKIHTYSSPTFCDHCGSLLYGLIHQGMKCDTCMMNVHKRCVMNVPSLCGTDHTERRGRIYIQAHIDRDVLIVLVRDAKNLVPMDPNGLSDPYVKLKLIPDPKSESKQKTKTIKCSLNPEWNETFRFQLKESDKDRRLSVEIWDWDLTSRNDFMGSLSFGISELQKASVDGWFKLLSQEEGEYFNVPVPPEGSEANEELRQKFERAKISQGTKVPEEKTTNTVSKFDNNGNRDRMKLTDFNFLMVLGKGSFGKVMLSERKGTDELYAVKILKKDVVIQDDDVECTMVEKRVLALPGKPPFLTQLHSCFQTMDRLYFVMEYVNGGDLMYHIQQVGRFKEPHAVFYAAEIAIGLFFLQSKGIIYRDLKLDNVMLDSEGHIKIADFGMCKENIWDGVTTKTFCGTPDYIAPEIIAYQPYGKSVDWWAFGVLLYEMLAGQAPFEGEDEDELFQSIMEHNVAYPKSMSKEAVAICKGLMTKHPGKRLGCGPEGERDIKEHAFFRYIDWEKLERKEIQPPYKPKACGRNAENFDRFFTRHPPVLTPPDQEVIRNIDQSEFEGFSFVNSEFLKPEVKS
The method, then:
as §1, §2, §3

For assay [14], the target named is T9, IGF-1R (h), activated (Homo sapiens, UniProt P08069).
T9 construct: purchased Millipore
T9 sequence (P08069 959-1367 limits assumed): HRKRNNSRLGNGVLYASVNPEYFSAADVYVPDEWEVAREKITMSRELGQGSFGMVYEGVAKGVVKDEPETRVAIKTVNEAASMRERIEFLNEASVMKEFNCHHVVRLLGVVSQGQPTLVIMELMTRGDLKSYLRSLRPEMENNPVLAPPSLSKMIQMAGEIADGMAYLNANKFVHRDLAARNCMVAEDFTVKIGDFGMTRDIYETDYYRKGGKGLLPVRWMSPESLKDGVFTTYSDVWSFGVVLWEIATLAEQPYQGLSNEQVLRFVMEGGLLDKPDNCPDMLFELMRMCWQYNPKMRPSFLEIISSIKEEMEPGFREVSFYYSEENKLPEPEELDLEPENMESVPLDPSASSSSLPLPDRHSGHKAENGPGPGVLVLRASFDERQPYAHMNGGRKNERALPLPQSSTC
The method, then:
as §1, §2, §3

SRPK2 (h), sequence (P78362 whole entry): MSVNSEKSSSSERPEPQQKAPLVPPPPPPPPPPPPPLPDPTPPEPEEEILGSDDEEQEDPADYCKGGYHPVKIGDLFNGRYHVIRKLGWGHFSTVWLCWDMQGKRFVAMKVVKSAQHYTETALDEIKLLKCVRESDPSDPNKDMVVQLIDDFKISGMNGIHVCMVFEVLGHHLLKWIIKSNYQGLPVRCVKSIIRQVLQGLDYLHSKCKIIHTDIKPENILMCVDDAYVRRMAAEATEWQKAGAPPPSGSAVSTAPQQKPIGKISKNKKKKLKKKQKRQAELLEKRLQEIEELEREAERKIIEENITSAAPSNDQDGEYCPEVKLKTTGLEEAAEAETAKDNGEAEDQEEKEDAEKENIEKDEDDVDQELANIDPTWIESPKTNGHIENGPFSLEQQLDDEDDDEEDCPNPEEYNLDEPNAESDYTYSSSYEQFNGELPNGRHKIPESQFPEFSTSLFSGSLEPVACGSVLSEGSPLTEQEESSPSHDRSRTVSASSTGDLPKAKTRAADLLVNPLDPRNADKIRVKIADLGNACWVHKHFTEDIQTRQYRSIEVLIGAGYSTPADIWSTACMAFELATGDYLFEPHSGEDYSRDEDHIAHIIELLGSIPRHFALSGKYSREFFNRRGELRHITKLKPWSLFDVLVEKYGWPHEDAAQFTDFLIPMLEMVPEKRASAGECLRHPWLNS
SIK (h), sequence (P57059 whole entry): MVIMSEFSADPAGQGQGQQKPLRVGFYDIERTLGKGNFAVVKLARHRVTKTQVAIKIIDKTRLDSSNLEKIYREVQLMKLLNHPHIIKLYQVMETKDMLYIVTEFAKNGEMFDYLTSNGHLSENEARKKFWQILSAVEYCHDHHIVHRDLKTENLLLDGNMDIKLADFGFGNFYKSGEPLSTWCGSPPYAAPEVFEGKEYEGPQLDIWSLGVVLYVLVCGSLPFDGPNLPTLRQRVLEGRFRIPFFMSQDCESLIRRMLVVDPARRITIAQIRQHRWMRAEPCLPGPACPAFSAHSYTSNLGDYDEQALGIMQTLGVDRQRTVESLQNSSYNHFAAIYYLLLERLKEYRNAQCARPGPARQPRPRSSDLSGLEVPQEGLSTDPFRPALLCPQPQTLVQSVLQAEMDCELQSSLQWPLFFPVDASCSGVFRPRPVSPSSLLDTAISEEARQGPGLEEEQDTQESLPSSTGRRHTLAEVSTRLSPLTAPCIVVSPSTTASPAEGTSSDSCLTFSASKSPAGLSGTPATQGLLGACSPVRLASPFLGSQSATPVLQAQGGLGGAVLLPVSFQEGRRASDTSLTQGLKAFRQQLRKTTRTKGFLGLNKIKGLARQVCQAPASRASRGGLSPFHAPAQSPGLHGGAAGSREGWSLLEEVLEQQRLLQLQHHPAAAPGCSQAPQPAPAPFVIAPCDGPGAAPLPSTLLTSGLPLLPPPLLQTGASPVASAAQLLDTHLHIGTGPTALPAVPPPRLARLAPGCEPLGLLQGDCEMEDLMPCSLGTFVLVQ

As for KAFAKLAARLYRKALARQLGVAA [MMI-0400], the “% activity” value is 97% in [1]; 33% in [2]; 89% in assay [3]; 265% in assay [4]; 177% in assay [5]; 78% in assay [6]. Moreover, the “% activity” value is reported as 31% in [7]; 18% in assay [8]; 92% in assay [9]; 71% in [10]; 67% in assay [11]; 68% in assay [12]. Also, the “% activity” value was determined as 75% in assay [13] and 77% in assay [14].

In the case of “YARAAARQARAKALNRQLGVA (Mammalian) [MMI-0200]”, the “% activity” value in assay [1] worked out at 100%; in assay [2], 58%; in assay [3] it was 98%; in [4] it was 143%; in assay [5], 124%; in assay [7], 81%. Moreover, the “% activity” value in assay [8] is recorded as 99%; in assay [9], 97%; in assay [11] it was 110%; in [13], 100%; in [14], 94%.

Take “HRRIKAWLKKIKALARQLGVAA (Mammalian) [MMI-0500]”: the “% activity” value is on record as 80% in [1]; 1% in [2]; 86% in assay [3]; 239% in assay [4]; 29% in assay [6]; 3% in assay [7]. Further, the “% activity” value is given as 17% in assay [8]; 66% in [9]; −10% in assay [10]; 30% in [11]; 40% in [12]; 3% in assay [13]. In addition, the “% activity” value in assay [14] was determined as 45%.

As for FAKLAARLYRKALARQLGVAA [MMI-0300], the “% activity” value in [2] amounted to 75%; in [3] it was 94%; in assay [4], 255%; in assay [5] it was 122%; in assay [6] it was 86%; in assay [7] it was 33%. The “% activity” value in assay [8] is given as 84%; in assay [9] it was 89%; in [10], 83%; in assay [11], 57%; in assay [12] it was 66%; in [13] it was 82%. Further, the “% activity” value in [14] was determined as 80%.
